Laboratory results taken from patent publication US12258605B2, “Alkane oxidation by modified hydroxylases” (The California Institute of Technology, priority 2005, dated 2025).
Where a chain is given by its changes, count along the chain named. Names and notes keep the numbering of the source.

B1: 35-E11: P450 BM-3 variant, SEQ ID NO:7: 53-5H substitutions plus E464G and I710T (protein)
chain: TIKEMPQPKTFGELKNLPLLNTDKPVQALMKIADELGEIFKFEAPGCVTRYLSSQRLIKEACDESRFDKNLSQALKFFRDFSGDGLFTSWTHEINWKKAHNILLPSFSQQAMKGYHAMMVDIAVQLVQKWERLNADEHIEVSEDMTRLTLDTIGLCGFNYRFNSFYRDQPHPFIISMVRALDEVMNKLQRANPDDPAYDENKRQCQEDIKVMNDLVDKIIADRKARGEQSDDLLTQMLNGKDPETGEPLDDGNISYQIITFLIAGHETTSGLLSFALYFLVKNPHVLQKVVEEAARVLVDPVPSYKQVKQLKYVGMVLNEALRLWPTFPAFSLYAKEDTVLGGEYPLEKGDEVMVLIPQLHRDKTIWGDDVEEFRPERFENPSAIPQHAFKPFGNGQRACIGQQFALHEATLVLGMMLKHFDFEDHTNYELDIKETLTLKPEGFVVKAKSKKIPLGGIPSPSTGQSAKKVRKKAENAHNTPLLVLYGSNMGTAEGTARDLADIAMSKGFAPQVATLDSHAGNLPREGAVLIVTASYNGHPPDNAKQFVDWLDQASADEVKGVRYSVFGCGDKNWATTYQKVPAFIDETLAAKGAENIADRGEADASDDFEGTYEEWREHMWSDVAAYFNLDIENSEDNKSTLSLQFVDSAADMPLAKMHGAFSTNVVASKELQQPGSARSTRHLEIELPKEASYQEGDHLGVIPRNYEGTVNRVTARFGLDASQQIRLEAEEEKLAHLPLAKTVSVEELLQYVELQDPVTRTQLRAMAAKTVCPPHKVELEALLEKQAYKEQVLAKRLTMLELLEKYPACEMKFSEFIALLPSIRPRYYSISSSPRVDEKQASITVSVVSGEAWSGYGEYKGIASNYLAELQEGDTITCFISTPQSEFTLPKDPETPLIMVGPGTGVAPFRGFVQARKQLKEQGQSLGEAHLYFGCRSPHEDYLYQEELENAQSEGIITLHTAFSRMPNQPKTYVQHVMEQDGKKLIELLDQGAHFYICGDGSQMAPAVEATLMKSYADVHQVSEADARLWLQQLEEKGRYAKDVWAG
modifications: mutant P450 35-E11 protein sequence
B2: P450PMO: P450 BM-3 variant, SEQ ID NO:125; 7-7 plus G443A and D698G; propane monooxygenase (protein)
chain: B1 chain with L52I, A74E, S82G, L188P, I366V, G443A, D698G
modifications: Mutant P450PMO protein sequence
notes: 7-7 plus G443A and D698G; propane monooxygenase
B3: Wild-type BM-3: wild-type cytochrome P450 BM-3 from Bacillus megaterium, SEQ ID NO:1 (protein, listed as Bacillus megaterium)
chain: TIKEMPQPKTFGELKNLPLLNTDKPVQALMKIADELGEIFKFEAPGRVTRYLSSQRLIKEACDESRFDKNLSQALKFVRDFAGDGLFTSWTHEKNWKKAHNILLPSFSQQAMKGYHAMMVDIAVQLVQKWERLNADEHIEVPEDMTRLTLDTIGLCGFNYRFNSFYRDQPHPFITSMVRALDEAMNKLQRANPDDPAYDENKRQFQEDIKVMNDLVDKIIADRKASGEQSDDLLTHMLNGKDPETGEPLDDENIRYQIITFLIAGHETTSGLLSFALYFLVKNPHVLQKAAEEAARVLVDPVPSYKQVKQLKYVGMVLNEALRLWPTAPAFSLYAKEDTVLGGEYPLEKGDELMVLIPQLHRDKTIWGDDVEEFRPERFENPSAIPQHAFKPFGNGQRACIGQQFALHEATLVLGMMLKHFDFEDHTNYELDIKETLTLKPEGFVVKAKSKKIPLGGIPSPSTEQSAKKVRKKAENAHNTPLLVLYGSNMGTAEGTARDLADIAMSKGFAPQVATLDSHAGNLPREGAVLIVTASYNGHPPDNAKQFVDWLDQASADEVKGVRYSVFGCGDKNWATTYQKVPAFIDETLAAKGAENIADRGEADASDDFEGTYEEWREHMWSDVAAYFNLDIENSEDNKSTLSLQFVDSAADMPLAKMHGAFSTNVVASKELQQPGSARSTRHLEIELPKEASYQEGDHLGVIPRNYEGIVNRVTARFGLDASQQIRLEAEEEKLAHLPLAKTVSVEELLQYVELQDPVTRTQLRAMAAKTVCPPHKVELEALLEKQAYKEQVLAKRLTMLELLEKYPACEMKFSEFIALLPSIRPRYYSISSSPRVDEKQASITVSVVSGEAWSGYGEYKGIASNYLAELQEGDTITCFISTPQSEFTLPKDPETPLIMVGPGTGVAPFRGFVQARKQLKEQGQSLGEAHLYFGCRSPHEDYLYQEELENAQSEGIITLHTAFSRMPNQPKTYVQHVMEQDGKKLIELLDQGAHFYICGDGSQMAPAVEATLMKSYADVHQVSEADARLWLQQLEEKGRYAKDVWAG

How the values were obtained:
[1] = Reactions on alkanes, total turnovers (Table 18): propane; assay type: biochemical; details: for % rel. act. / TTN: propane (3 C atoms); for % rel. act.: TTN normalized to the highest value of the variant's series; for TTN: total turnovers, standardized reaction conditions
Method: (§1) Reactions on alkanes. Reactions with alkanes from pentane to decane were carried out at 3 mL-scale using 100 mM KPi pH 8.0 buffer containing 2% ethanol (to allow alkane solubilization) and purified protein. 2.5 mL KPi buffer were added with 60 μL of 90 mM alkane solution in ethanol (final conc.=1.8 mM), 150 μL enzyme solution at 1 μM (final conc.=50 nM), and 300 μL NADPH regeneration solution (100 units/mL isocitrate dehydrogenase, 70 mg/mL isocitrate, 1.5 mg/ml NADP^+). Vials were sealed and stirred for 24 hours at 4° C. 1 mL-aliquot of the reaction was removed, added with 10 μl internal standard (25 mM 1-bromohexane in ethanol), and extracted with 200 μl chloroform (30 sec vortexing, 1 min centrifugation at 10000 g). The organic phase was removed and analyzed by gas chromatography. Reactions with ethane, propane, and butane were carried out as described for longer alkanes with the only difference that alkane-saturated KPi buffer was used. Propane reactions with variants from HL5 and L9 libraries were performed on 1 mL-scale reaction using 20 nM enzyme to reduce oxygen limitation. Propane and butane reactions were analyzed by direct injection of reaction solution on the GC using 1-pentanol as internal standard. Ethane reaction products were functionalized (see below) and analyzed by GC using 1-butanol as internal standard. All measurements were performed in triplicate.
(§2) Products from alkane reactions were identified and quantified by gas chromatography using authentic standards and calibration curves with internal standards. For the reactions with alkanes from pentane to decane, GC analyses were carried out using a Shimadzu GC-17A gas chromatograph, Agilent HP5 column (30 m×0.32 mm×0.1 μm film), 1 μL injection, FID detector, and the following separation program: 250° C. inlet, 250° C. detector, 50° C. oven for 3 min, 5° C./min gradient to 100° C., 25° C./min gradient to 230° C., and 230° C. for 3 min. For butane and propane (TTN) reactions, GC analyses were carried out using a Hewlett-Packard 5890 Series II Plus gas chromatograph, Supelco SPB-1 column (60 m×0.52 mm×0.5 μm film), 0.5 μL injection, FID detector, and the following separation program: 250° C. inlet, 275° C. detector, 80° C. oven for 2 min, 10° C./min gradient to 110° C., 25° C./min gradient to 275° C., and 275° C. for 2.5 min. For ethane and propane (rate) reactions, analysis of reaction mixtures was carried out by derivatization to alkyl nitrites followed by GC-ECD analysis. For laurate, reaction product analysis was carried out by derivatization with N-methyl-N-trimethylsilylheptafluorobutyramide followed by extraction with hexane. Organic solutions were analyzed by FID-GC.
Because 35E11 was only marginally stable, the engineering strategy described herein (see below) involved an initial stabilization step followed by iterative rounds of mutagenesis and screening. Random, saturation and site-directed mutagenesis methods were used to create libraries of mutants (FIG. 35), which were screened for activity on a propane surrogate, dimethyl ether. Positives were confirmed in a re-screen and purified for further analysis. Reactions with purified enzymes were carried out in sealed vials in the presence of propane-saturated buffer and a cofactor regeneration system. Improvement in propane total turnover number-moles of propanol produced per mole of enzyme—was a selection criterion for taking a mutant to the next round.
TTNs for each variant-substrate pair were determined using standardized reaction conditions (identical enzyme and substrate concentration, incubation time, cofactor regeneration system) (Table 18). TTN values were used to assess performance because TTN is a cumulative measure of both catalytic and coupling efficiency and because mutants were selected based on improvement in this property. […]

[2] = Reactions on alkanes, total turnovers (Table 18): ethane; assay type: biochemical; details: ethane (2 C atoms); for % rel. act.: TTN normalized to the highest value of the variant's series; for TTN: total turnovers, standardized reaction conditions
Method: as §1, §2
TTNs for each variant-substrate pair were determined using standardized reaction conditions (identical enzyme and substrate concentration, incubation time, cofactor regeneration system) (Table 18). TTN values were used to assess performance because TTN is a cumulative measure of both catalytic and coupling efficiency and because mutants were selected based on improvement in this property. To facilitate comparison among the variants, TTNs were normalized to the highest value in the series (MTN=Maximal Turnover Number) and plotted for the increasing-sized substrates (FIG. 38). A gradual shift of the enzyme's substrate preference during laboratory evolution is evident from these profiles. The marginal activity of wild-type BM3 on these substrates (MTN=150) is restricted to the long-chain alkanes, where it is a promiscuous function of BM3's high C12-C20 fatty acid hydroxylase activity. In the first evolutionary intermediates, substrate preference centers on medium-chain alkanes […], reflecting their selection for activity on octane. In 35E11, selected for activity on propane, preference still centers on C6-C8 alkanes but now extends towards the shorter ones, including propane. Propane activity becomes prevalent with the transition from variant ETS8 to 19A12. […]

| Molecule | % rel. act. [1] [%] | TTN [1] | % rel. act. [2] [%] | TTN [2] | increase of total turnovers on propane ([1]; compared to 139-3) [fold] | turnovers on propane (TTN) ([1]; propane-saturated buffer, cofactor regeneration system) |
| --- | --- | --- | --- | --- | --- | --- |
| B1 | 71.7 | 4550 ± 350 | 3.5 | 220 ± 30 | – | – |
| B2 | 100.0 | 20500 ± 1900 | 12.4 | 2550 ± 250 | 100 | more than 20,000 |
| B3 | 0.0 | 0 | 0.0 | 0 | – | – |
